Measurements reported in patent US20230000950A1, “COMPOSITION COMPRISING GLUCAGON AND GLP-1 AND GIP RECEPTOR DUAL AGONIST AND THERAPEUTIC USE OF SAME” (HANMI PHARM. CO., LTD., priority 2019, published 2023).
Where two headings read alike, the source gives them in different places. Positions of bridges follow the written chain, without caps; N, C: chain ends. Non-standard residues stand in square brackets, D forms with d. No end group written: not given here. Aib = CC(C)(N)C(=O)O

T1: human GIP receptor (human, UniProt P48546 22-466)
T1 sequence (looked up): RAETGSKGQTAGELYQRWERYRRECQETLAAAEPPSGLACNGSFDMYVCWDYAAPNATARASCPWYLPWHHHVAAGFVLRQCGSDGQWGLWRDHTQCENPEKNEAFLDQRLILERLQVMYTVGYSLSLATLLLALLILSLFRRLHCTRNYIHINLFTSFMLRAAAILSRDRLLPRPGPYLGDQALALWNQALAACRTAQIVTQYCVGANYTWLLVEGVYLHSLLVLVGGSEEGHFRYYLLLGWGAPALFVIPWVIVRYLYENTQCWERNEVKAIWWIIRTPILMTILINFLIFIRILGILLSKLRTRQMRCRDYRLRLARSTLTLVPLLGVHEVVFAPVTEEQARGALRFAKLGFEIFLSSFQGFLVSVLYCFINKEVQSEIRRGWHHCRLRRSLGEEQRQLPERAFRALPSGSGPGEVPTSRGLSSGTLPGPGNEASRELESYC

B1: tirzepatide (peptide)
peptide: YXEGTFTSDYSIXLDKIAQKAFVQWLIAGGPSSGAPPPS
modifications: not fully specified; X at positions 2 and 13 = 2-methylalanine (Aib); Lys 20 N6-[(22S)-22,42-dicarboxy-10,19,24-trioxo-3,6,12,15-tetraoxa-9,18,23-triazadotetracontan-1-oyl]; C-terminal serinamide

Columns and labels:
[1] = cited from earlier work
human glucagon receptor = human glucagon receptor (human, UniProt P47871 26-477); assay: cell-based or functional assay
human GLP-1 receptor = human GLP-1 receptor (human, UniProt P43220 24-463); assay: cell-based or functional assay
human GIP receptor = molecular target: T1, human GIP receptor; assay: cell-based or functional assay

Chain of human glucagon receptor (P47871 26-477): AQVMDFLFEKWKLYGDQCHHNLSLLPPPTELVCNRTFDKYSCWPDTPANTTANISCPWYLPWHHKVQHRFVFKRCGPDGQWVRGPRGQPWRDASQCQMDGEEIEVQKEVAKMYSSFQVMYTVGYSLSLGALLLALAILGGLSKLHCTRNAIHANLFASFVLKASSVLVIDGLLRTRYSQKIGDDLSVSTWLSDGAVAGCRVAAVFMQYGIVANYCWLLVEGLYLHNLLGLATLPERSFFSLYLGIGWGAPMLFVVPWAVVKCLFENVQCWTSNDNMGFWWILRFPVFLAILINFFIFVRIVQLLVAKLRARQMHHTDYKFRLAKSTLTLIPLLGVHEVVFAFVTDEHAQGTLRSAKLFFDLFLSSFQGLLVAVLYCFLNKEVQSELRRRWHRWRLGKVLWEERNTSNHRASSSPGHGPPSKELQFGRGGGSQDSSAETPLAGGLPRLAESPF

Molecule	In vitro activity (relative activity to SEQ ID NO: 1, %), cAMP assay, from EC50 (human glucagon receptor) [%]	other results
contrave	–	side effects ([1]; in vivo): cardiovascular side effects
CCCCCCCCCCC[C@@H](C[C@@H]1OC(=O)[C@H]1CCCCCC)OC(=O)[C@H](CC(C)C)NC=O [orlistat]	–	body weight loss effect ([1]; taken for one year): about 4 kg
Cc1c(C(=O)NN2CCCCC2)nn(-c2ccc(Cl)cc2Cl)c1-c1ccc(Cl)cc1 [rimonabant]	–	side effects ([1]; reported): central nervous system side effects
CC(C)CC(N(C)C)C1(c2ccc(Cl)cc2)CCC1 (stereo not shown) [sibutramine]	–	side effects ([1]; reported): cardiovascular side effects
YSQGTFTSDYSKYLDSCEADDFVQWLMNT [glucagon derivative of SEQ ID NO: 7]	< 0.1	–
Y[Aib]QGTFTSDCSKYLDSRRAQDFVQWLMNT [glucagon derivative of SEQ ID NO: 43]	1.6	–
YXQGTFTSDYSKYLDSRRAQDFVQWLMNTC (X at position 2 = aminoisobutyric acid (Aib)) [glucagon derivative of SEQ ID NO: 44]	75.4	–
Y[Aib]QGTFTSDYSKYCDERRAKEFVQWLMNT (lactam 16-20) [glucagon derivative of SEQ ID NO: 35]	17.7	–
Y[Aib]QGTFVSDCSKYLDERRAKDFVQWLMNT (lactam 16-20) [glucagon derivative of SEQ ID NO: 39]	3.7	–
W[Aib]QGTFVSDYSKYLDECRAKDFVQWLMNT (lactam 16-20) [glucagon derivative of SEQ ID NO: 28]	< 0.1	–
W[Aib]QGTFTSDYSKCLDERRAKDFVQWLMNT (lactam 16-20) [glucagon derivative of SEQ ID NO: 30]	0.3	–
Y[Aib]QGTFTSDYSKCLDERRAKDFVQWLMNT (lactam 16-20) [glucagon derivative of SEQ ID NO: 29]	61.3	–
Y[Aib]QGTFTSDYSKYLDCKRAKEFVQWLMNT (lactam 17-21) [glucagon derivative of SEQ ID NO: 31]	6.3	–
HSQGTFTSDYSKYLDCDRAQDFVQWLMNT [glucagon derivative of SEQ ID NO: 2]	0.6	–
Y[Aib]QGTFTSDYSKYLDSCDAQDFVQWLINT [glucagon derivative of SEQ ID NO: 8]	< 0.1	–
Y[Aib]QGTFCSDYSKYLDERRAKDFVQWLMNT (lactam 16-20) [glucagon derivative of SEQ ID NO: 41]	45.2	–
W[Aib]QGTFTSDYSKYCDERRAKEFVQWLMNT (lactam 16-20) [glucagon derivative of SEQ ID NO: 34]	0.2	–
SQGTFTSDYSKYLDECRAKEFVQWLMNT (lactam 15-19) [glucagon derivative of SEQ ID NO: 32]	0.7	–
HSQGTFTSDYSKYLDSCEADDFVQWLMNT [glucagon derivative of SEQ ID NO: 6]	< 0.1	–
HSQGTFTSDYSKYLDCERAQDFVQWLMNT [glucagon derivative of SEQ ID NO: 3]	6.1	–
Y[Aib]QGTFCSDYSKYLDERRAKEFVQWLMNT (lactam 16-20) [glucagon derivative of SEQ ID NO: 38]	167	–
HSQGTFTSDYSKYLDSCDAQDFVQWLMNT [glucagon derivative of SEQ ID NO: 4]	< 0.1	–
YXQGTFTSDYSKYLDSRRAQDFVQWLMNT (X at position 2 = aminoisobutyric acid (Aib)) [glucagon derivative of SEQ ID NO: 33]	108	–
Y[Aib]QGTFVSDYSKYLDERRAKDFVQWLMNTC (lactam 16-20) [glucagon derivative of SEQ ID NO: 40]	40.8	–
HSQGTFTSDYSKYLDSCEAQDFVQWLMNT [glucagon derivative of SEQ ID NO: 5]	0.3	–
Y[Aib]QGTFCSDYSKYLDSRRAQDFVQWLMNT [glucagon derivative of SEQ ID NO: 42]	37.9	–
Y[Aib]QGTFTSDYSKYLDERRAKEFVQWLMNTC (lactam 16-20) [glucagon derivative of SEQ ID NO: 37]	226	–
Y[Aib]QGTFTSDYSCYLDEKRAKEFVQWLMNT [glucagon derivative of SEQ ID NO: 45]	5.2	–
Y[Aib]QGTFTSDCSKYLDERRAKEFVQWLMNT (lactam 16-20) [glucagon derivative of SEQ ID NO: 36]	9.9	–
B1	–	Relative in vitro activity to native ligand (EC50), cAMP assay (human GLP-1 receptor): 1.3%; Relative in vitro activity to native ligand (EC50), cAMP assay (human GIP receptor): 6.7%
